Reference: publication PMC5505021

Biological target: heat shock protein 90β (African green monkey (endogenous in Vero))
Test: flow cytometry on cells

Japanese encephalitis virus strain SA14, purified viral particles (complex)
percentage of HSP90β-JEV binding by FCM (0 μg/ml anti-HSP90β mAb): 76.2% | percentage of HSP90β-JEV binding by FCM (with 20 μg/ml anti-HSP90β mAb): 19.1% | percentage of HSP90β-JEV binding by FCM (with 100 μg/ml anti-HSP90β mAb): 10.4%
